Stoichiometry N data for 4 substances are collected here from paper doi:10.1101/2020.04.18.045682.

For assay [1], the target named is Cas10d (Synechocystis sp. PCC 6803). The assay is described as follows: affinity purification with mass spectrometry.
For assay [2], the target named is type I-D Cascade lacking Cas11d (Synechocystis sp. PCC 6803). The assay is described as follows: negative-stain electron microscopy, 3D reconstruction.

As for Cas6d (natural protein), the stoichiometry N in assay [1] came out at 1. As for Cas5d (natural protein), the stoichiometry N in assay [1] stood at 1. Consider Cas11d (natural protein), for which the stoichiometry N in assay [2] and in assay [1] was 2 each time. As to Cas7d (natural protein), in assay [1], the stoichiometry N was 6.
